In PMC11813584, “An odorant-binding protein functions in fire ant social immunity interfacing with innate immunity” (Open Biology, 2025):

Target: T1, SiOBP15, purified, His-tag removed (Solenopsis invicta)
T1 construct: the ORF cloned into pET28a; also called purified SiOBP15; SiOBP15 protein (ligand); source: E. coli BL21, purified (Ni-Sepharose Cl-6B agarose), His-tag removed by protease cleavage
Assay: SPR; open SPR; SiOBP15 coupled to a COOH chip until saturation, SiApoLp-III or SiFABP5 titrated as analyte; one-to-one model (TraceDrawer)
Conditions: both partners purified

B1: SiApoLp-III, purified, His-tag removed (natural protein)
chain: EQSGTQPQLSDYIRDAQTAISSLGTQIQEHLNLPNQEELANTFKEQSTNFANNVQAYLQNITDEVKAKSPELEDFWTNMKTKLSEAVDNLHINPETTEQVNQLRAKFQEGVQTLVTESENAAKTISENSGKVQESIAKITKQAIDIAVKASQNLNQQLQQATTPQP
- Kd: 713 nM
